Legend:
[1] = target: cytochrome C (human, UniProt P99999 2-105); assay: immunopurification of cytochrome C from transfected HBL-100 cells, quantified immunoblot for APAF-1
Experimental: Immunoblots were quantified using a Kodak 4000 Imaging Station and software. […] Values were obtained from three independent experiments.
HBL-100 and MCF-7 cells were exposed to UV light (6,600 microwatt seconds per square centimeter), or treated with adriamycin (0.2 μg ml⁻¹) for 24 h. […] Immunoblots shown were quantified on a Kodak 4000 Imaging Station and software.

[2] = target: p53 (human, UniProt P04637 1-393); assay: cell-based or functional assay
p53, sequence (P04637 whole entry): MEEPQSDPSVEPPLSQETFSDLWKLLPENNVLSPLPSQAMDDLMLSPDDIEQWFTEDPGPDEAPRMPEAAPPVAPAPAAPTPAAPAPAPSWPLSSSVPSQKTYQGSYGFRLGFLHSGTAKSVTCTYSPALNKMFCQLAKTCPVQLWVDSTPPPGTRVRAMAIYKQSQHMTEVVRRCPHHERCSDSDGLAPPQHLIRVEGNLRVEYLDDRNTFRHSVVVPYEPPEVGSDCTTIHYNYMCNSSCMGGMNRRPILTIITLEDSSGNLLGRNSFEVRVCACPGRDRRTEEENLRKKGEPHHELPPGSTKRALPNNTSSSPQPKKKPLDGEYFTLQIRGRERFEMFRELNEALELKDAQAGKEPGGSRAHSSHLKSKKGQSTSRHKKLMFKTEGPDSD

cytochrome C, sequence (P99999 2-105 limits assumed): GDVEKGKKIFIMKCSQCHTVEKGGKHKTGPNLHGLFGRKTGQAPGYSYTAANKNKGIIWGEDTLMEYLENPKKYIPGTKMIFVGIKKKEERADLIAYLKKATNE

Binder | fold increase of APAF-1 associated to cytochrome C (cells expressing BRCA1 (772-1292) against cells expressing control BRCA1 wt or BRCA1 (772-1036)) [1] [fold] | expression of p21 (immunoblot of immunopurified p21), HBL-100 cells [2] [fold] | percentage of cells in apoptosis (annexin-V-FITC binding), HBL-100 cells [2] [fold]
APAF-1 (other, human, UniProt O14727 1-1248, looked up) MDAKARNCLLQHREALEKDIKTSYIMDHMISDGFLTISEEEKVRNEPTQQQRAAMLIKMILKKDNDSYVSFYNALLHEGYKDLAALLHDGIPVVSSSSGKDSVSGITSYVRTVLCEGGVPQRPVVFVTRKKLVNAIQQKLSKLKGEPGWVTIHGMAGCGKSVLAAEAVRDHSLLEGCFPGGVHWVSVGKQDKSGLLMKLQNLCTRLDQDESFSQRLPLNIEEAKDRLRILMLRKHPRSLLILDDVWDSWVLKAFDSQCQILLTTRDKSVTDSVMGPKYVVPVESSLGKEKGLEILSLFVNMKKADLPEQAHSIIKECKGSPLVVSLIGALLRDFPNRWEYYLKQLQNKQFKRIRKSSSYDYEALDEAMSISVEMLREDIKDYYTDLSILQKDVKVPTKVLCILWDMETEEVEDILQEFVNKSLLFCDRNGKSFRYYLHDLQVDFLTEKNCSQLQDLHKKIITQFQRYHQPHTLSPDQEDCMYWYNFLAYHMASAKMHKELCALMFSLDWIKAKTELVGPAHLIHEFVEYRHILDEKDCAVSENFQEFLSLNGHLLGRQPFPNIVQLGLCEPETSEVYQQAKLQAKQEVDNGMLYLEWINKKNITNLSRLVVRPHTDAVYHACFSEDGQRIASCGADKTLQVFKAETGEKLLEIKAHEDEVLCCAFSTDDRFIATCSVDKKVKIWNSMTGELVHTYDEHSEQVNCCHFTNSSHHLLLATGSSDCFLKLWDLNQKECRNTMFGHTNSVNHCRFSPDDKLLASCSADGTLKLWDATSANERKSINVKQFFLNLEDPQEDMEVIVKCCSWSADGARIMVAAKNKIFLFDIHTSGLLGEIHTGHHSTIQYCDFSPQNHLAVVALSQYCVELWNTDSRSKVADCRGHLSWVHGVMFSPDGSSFLTSSDDQTIRLWETKKVCKNSAVMLKQEVDVVFQENEVMVLAVDHIRRLQLINGRTGQIDYLTEAQVSCCCLSPHLQYIAFGDENGAIEILELVNNRIFQSRFQHKKTVWHIQFTADEKTLISSSDDAEIQVWNWQLDKCIFLRGHQETVKDFRLLKNSRLLSWSFDGTVKVWNIITGNKEKDFVCHQGTVLSCDISHDATKFSSTSADKTAKIWSFDLLLPLHELRGHNGCVRCSAFSVDSTLLATGDDNGEIRIWNVSNGELLHLCAPLSEEGAATHGGWVTDLCFSPDGKMLISAGGYIKWWNVVTGESSQTFYTNGTNLKKIHVSPDFKTYVTVDNLGILYILQTLE | 3 |  | 
HA-tag-BRCA1 (772-1292) (other, not shown: small tags and cut ends) VPGTDYGTQESISLLEVSTLGKAKTEPNKCVSQCAAFENPKGLIHGCSKDNRNDTEGFKYPLGHEVNHSRETSIEMEESELDAQYLQNTFKVSKRQSFAPFSNPGNAEEECATFSAHSGSLKKQSPKVTFECEQKEENQGKNESNIKPVQTVNITAGFPVVGQKDKPVDNAKCSIKGGSRFCLSSQFRGNETGLITPNKHGLLQNPYRIPPLFPIKSFVKTKCKKNLLEENFEEHSMSPEREMGNENIPSTVSTISRNNIRENVFKEASSSNINEVGSSTNEVGSSINEIGSSDENIQAELGRNRGPKLNAMLRLGVLQPEVYKQSLPGSNCKHPEIKKQEYEEVVQTVNTDFSPYLISDNLEQPMGSSHASQVCSETPDDLLDDGEIKEDTSFAENDIKESSAVFSKSVQKGELSRSPSPFTHTHLAQGYRRGAKKLESSEENLSSEDEELPCFQHLLFGKVNNIPSQSTRHSTVATECLSKNTEENLLSLKNSLNDCSNQVILAKASQEHHLSEETKCS |  | 5 | > 10

— patent US20100317598A1 (University of California, published 2010)
